Source: the supplement of paper PMC10201428
± gives the standard deviation of the averaged measurements.

Legend:
[1] = test system: VchCAST RNA-guided transposition machinery (E. coli BL21(DE3) host, lacZ target); test: relative integration efficiency (T-RL orientation) vs wild-type transposon end (log2 (normalized fold change)); transposon end mutated: right end (5 bp flank + 75 bp right end); higher = more efficient transposition
Outline: (§1)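 Relative integration efficiency is a fold change of output over input barcode abundance, normalised to reference barcodes and log-transformed. Input plasmids and genomic integration junctions were PCR-amplified and Illumina-sequenced from E. coli BL21(DE3) co-transformed with a T7-driven effector plasmid and pUC57 donor pools of 1549 left-end or 1849 right-end transposon variants. Plating was done with 0.1 mM IPTG at 37°C for 18 h, with two biological output replicates and four reference barcodes.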

[2] = test system: VchCAST RNA-guided transposition machinery (E. coli BL21(DE3) host, lacZ target); test: relative integration efficiency (T-LR orientation) vs wild-type transposon end (log2 (normalized fold change)); transposon end mutated: right end (5 bp flank + 75 bp right end); higher = more efficient transposition
Outline: as §1

Row | Sequence | relative integration efficiency (log2) [1] | relative integration efficiency (log2) [2]
1 | ACATTTGTTGATACAACCAATAAATGATAATTACACCCATAAATTGATAATGATGACACCGAATTTAACTATAACGCTCTGATCATAGTCAGACCAACATTGCTACGACCCGTATTCGCACCGACAC | -1.56 ± 0.22 | 1.92 ± 0.035
2 | ACATTTGTTGATACAACCAATAAATGATAATTACACCCATAAATTGATAATTATCACACCCATAAATTGATATTGCCTCTGATCATAGTCAGACCAACATTGCTACGACCCGTATTCGCACCGACAC | -0.395 ± 0.089 | -0.407 ± 0.67
3 | ACATTTGTTGATACAACCAATAAATGATAATTACACCCATAAATTGATAATTGTGACACCGAATTTAACTATAACGCTCTGATCATAGTCAGACCAACATTGCTACGACCCGTATTCGCACCGACAC | -1.29 ± 0.29 | 2.09 ± 0.064
4 | ACATTTGTTGATACAACCAATAAATGATAATTACACCCATTAATTGATAATAATGACACCGAATTTAACTATAACGCTCTGATCATAGTCAGACCAACATTGCTACGACCCGTATTCGCACCGACAC | -1.48 ± 0.29 | 1.91 ± 0.054
5 | ACATTTGTTGATACAACCAATAAATGATAATTACCCCCATAAATTGATAATTGTGACACCGAATTTAACTATAACGCTCTGATCATAGTCAGACCAACATTGCTACGACCCGTATTCGCACCGACAC | -2.18 ± 0.42 | 1.59 ± 0.12
6 | ACATTTGTTGATACAACCAATAAATGATTATTACACCCATAAATTGATAATAATGACACCGAATTTAACTATAACGCTCTGATCATAGTCAGACCAACATTGCTACGACCCGTATTCGCACCGACAC | 0.0749 ± 0.43 | 3.45 ± 0.19
7 | ACATTTGTTGATACAACCAATTTATGATAATTACACCCATAAATTGATAATTATCACACCCATAAATTGATATTGCCTCTGATCATAGTCAGACCAACATTGCTACGACCCGTATTCGCACCGACAC | -0.308 ± 0.066 | -0.66 ± 0.3
8 | ACATTTGTTGATACAACCAATTTTTGATAATTACACCCAATTTATGATAATTATCACACCCAATTTATGATATTGCCTCTGATCATAGTCAGACCAACATTGCTACGACCCGTATTCGCACCGACAC | -1.89 ± 0.22 | -1.18 ± 0.21
9 | ACATTTGTTGATACAACCAGAAAATGATAATTACACCCAGAAATTGATAATTATCACACCCAGAAATTGATATTGCCTCTGATCATAGTCAGACCAACATTGCTACGACCCGTATTCGCACCGACAC | -5.0799 ± 0.0039 | -3.58 ± 1.1
10 | ACATTTGTTGATACAACCAGCAAATGATAATTACACCCATAAATTGATAATTATCACACCCATAAATTGATATTGCCTCTGATCATAGTCAGACCAACATTGCTACGACCCGTATTCGCACCGACAC | -2.72 ± 0.21 | -3.07 ± 0.51
11 | ACATTTGTTGATACAACCAGCCCATGATAATTACACCCATAAATTGATAATTATCACACCCATAAATTGATATTGCCTCTGATCATAGTCAGACCAACATTGCTACGACCCGTATTCGCACCGACAC | -4.196 ± 0.023 | -3.69 ± 0.75
12 | ACATTTGTTGATACAACCAGCCCCGTCGCCGGCACAAACGCCCGGTCGCCGGCGACACAAACGCCCGGTCGCGGTAAGAGGATCATAGTCAGACCAACATTGCTACGACCCGTATTCGCACCGACAC | -7.56 ± 1.3 | -6.28 ± 0.75
13 | ACATTTGTTGATACAACCAGCCCCTGATAATTACACCCAGCCCGTGATAATTATCACACCCAGCCCGTGATATTGCCTCTGATCATAGTCAGACCAACATTGCTACGACCCGTATTCGCACCGACAC | -6.71 ± 0.47 | -4.67 ± 2
14 | ACATTTGTTGATACAACCATAAAAACATAATTACACCCATAAATTGATAATTATCACACCCATAAATTGATATTGCCTCTGATCATAGTCAGACCAACATTGCTACGACCCGTATTCGCACCGACAC | -1.45 ± 0.33 | -1.06 ± 0.19
15 | ACATTTGTTGATACAACCATAAAAACTAAATTACACCCATAAATTGATAATTATCACACCCATAAATTGATATTGCCTCTGATCATAGTCAGACCAACATTGCTACGACCCGTATTCGCACCGACAC | -1.23 ± 0.062 | -1.55 ± 0.34
16 | ACATTTGTTGATACAACCATAAAAAGATAATTACACCCATAAATAGATAATTATCACACCCATAAATAGATATTGCCTCTGATCATAGTCAGACCAACATTGCTACGACCCGTATTCGCACCGACAC | -1.3 ± 0.18 | -0.0292 ± 0.3
17 | ACATTTGTTGATACAACCATAAAAAGATAATTACACCCATAAATTGATAATAATGACACCGAATTTAACTATAACGCTCTGATCATAGTCAGACCAACATTGCTACGACCCGTATTCGCACCGACAC | -1 ± 0.49 | 2.514 ± 0.018
